In paper PMC8455074 (Cancer cell, 2020):
Ends that are not written are not given here. * marks the point of attachment. Biotin = O=C1N[C@H]2[C@H](CS[C@H]2CCCCC(=O)*)N1

T1: His-tagged CXorf67, recombinant (human, UniProt Q86X51 1-503)
T1 sequence (looked up): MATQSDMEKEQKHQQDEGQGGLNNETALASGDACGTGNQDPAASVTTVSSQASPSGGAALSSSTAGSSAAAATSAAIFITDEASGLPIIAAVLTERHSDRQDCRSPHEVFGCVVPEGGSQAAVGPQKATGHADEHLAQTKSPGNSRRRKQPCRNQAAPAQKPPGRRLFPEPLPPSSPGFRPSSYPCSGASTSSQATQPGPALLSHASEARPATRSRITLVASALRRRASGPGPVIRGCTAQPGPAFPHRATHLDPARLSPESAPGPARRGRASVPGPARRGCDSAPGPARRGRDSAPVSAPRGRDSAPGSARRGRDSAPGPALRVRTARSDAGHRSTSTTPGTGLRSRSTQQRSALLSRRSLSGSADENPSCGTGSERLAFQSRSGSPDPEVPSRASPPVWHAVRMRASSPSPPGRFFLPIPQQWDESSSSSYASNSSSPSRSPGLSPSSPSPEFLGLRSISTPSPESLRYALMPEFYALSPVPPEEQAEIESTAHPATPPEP

B1: GST-tagged PALB2 WD40 domain (domain or fragment, UniProt Q86YC2 853-1186, looked up)
chain: GNLQLVSELKNPSGSCSVDVSAMFWERAGCKEPCIITACEDVVSLWKALDAWQWEKLYTWHFAEVPVLQIVPVPDVYNLVCVALGNLEIREIRALFCSSDDESEKQVLLKSGNIKAVLGLTKRRLVSSSGTLSDQQVEVMTFAEDGGGKENQFLMPPEETILTFAEVQGMQEALLGTTIMNNIVIWNLKTGQLLKKMHIDDSYQASVCHKAYSEMGLLFIVLSHPCAKESESLRSPVFQLIVINPKTTLSVGVMLYCLPPGQAGRFLEGDVKDHCAAAILTSGTIAIWDLLLGQCTALLPPVSDQHWSFVKWSGTDSHLLAGQKDGNIFVYHYS
B2: biotinylated WT C67 (420-432) peptide (peptide)
peptide: Biotin-GGPIPQQWDESSSSS

Experiments:
[1] = biological target: T1, His-tagged CXorf67, recombinant; test: pull-down
[2] = biological target: B1; test: pull-down

binding result [1] | binding result [2] | Binder
binds |  | B1
 | binds | B2
